Assay results taken from patent US20110275569A1 (CONSIGLIO NAZIONALE DELLE RICERCHE, published 2011).
Where no end group is shown, it is not given here.

T1: human acylamino-acid-releasing enzyme (AARE or APEH) (human, UniProt P13798 1-732, limits assumed)
T1 sequence (looked up): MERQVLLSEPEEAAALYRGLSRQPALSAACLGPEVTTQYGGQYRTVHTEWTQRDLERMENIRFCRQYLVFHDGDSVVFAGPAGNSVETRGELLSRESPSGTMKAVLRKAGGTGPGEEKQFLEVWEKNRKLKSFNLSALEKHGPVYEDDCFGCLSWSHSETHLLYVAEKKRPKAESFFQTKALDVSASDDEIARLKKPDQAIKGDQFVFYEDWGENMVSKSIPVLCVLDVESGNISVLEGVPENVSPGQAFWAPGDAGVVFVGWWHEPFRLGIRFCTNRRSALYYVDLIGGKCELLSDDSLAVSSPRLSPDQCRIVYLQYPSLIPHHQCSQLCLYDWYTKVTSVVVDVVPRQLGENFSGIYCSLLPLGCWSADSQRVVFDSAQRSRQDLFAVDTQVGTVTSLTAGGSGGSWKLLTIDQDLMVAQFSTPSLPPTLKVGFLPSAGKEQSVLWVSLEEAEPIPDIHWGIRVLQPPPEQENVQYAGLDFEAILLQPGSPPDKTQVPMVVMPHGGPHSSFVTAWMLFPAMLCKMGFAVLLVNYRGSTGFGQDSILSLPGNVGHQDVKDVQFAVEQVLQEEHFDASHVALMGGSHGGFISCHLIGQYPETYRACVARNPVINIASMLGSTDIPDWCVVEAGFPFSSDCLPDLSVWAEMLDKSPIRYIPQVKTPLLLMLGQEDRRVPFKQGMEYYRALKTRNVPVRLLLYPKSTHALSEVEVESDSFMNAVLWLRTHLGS

T2: porcine acylamino-acid-releasing enzyme (AARE or APEH) (porcine, UniProt P19205 1-732, limits assumed)
T2 sequence (looked up): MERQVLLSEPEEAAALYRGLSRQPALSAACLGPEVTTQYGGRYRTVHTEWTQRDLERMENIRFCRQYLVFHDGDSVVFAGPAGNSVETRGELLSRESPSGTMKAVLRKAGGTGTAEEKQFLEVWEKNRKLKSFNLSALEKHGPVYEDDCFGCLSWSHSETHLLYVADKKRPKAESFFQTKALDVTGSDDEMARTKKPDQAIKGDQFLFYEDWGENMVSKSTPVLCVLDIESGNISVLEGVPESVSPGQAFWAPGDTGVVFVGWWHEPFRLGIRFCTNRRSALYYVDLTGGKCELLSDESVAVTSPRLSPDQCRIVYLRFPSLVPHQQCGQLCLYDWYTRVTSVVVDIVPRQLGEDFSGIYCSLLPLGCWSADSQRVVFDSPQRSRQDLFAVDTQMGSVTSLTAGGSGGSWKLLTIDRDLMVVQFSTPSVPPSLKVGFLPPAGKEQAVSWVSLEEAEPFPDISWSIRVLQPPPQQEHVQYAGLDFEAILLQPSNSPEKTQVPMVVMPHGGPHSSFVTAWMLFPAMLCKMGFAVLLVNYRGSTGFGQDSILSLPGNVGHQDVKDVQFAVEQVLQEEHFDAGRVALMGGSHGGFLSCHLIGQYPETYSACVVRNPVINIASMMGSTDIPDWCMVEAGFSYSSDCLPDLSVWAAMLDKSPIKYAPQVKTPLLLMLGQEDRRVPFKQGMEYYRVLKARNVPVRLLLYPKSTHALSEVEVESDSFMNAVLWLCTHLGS

B1: recombinant S. solfataricus inhibitor Sso0767 (SsCEI) (other)
chain: MNSESIYSMRVVSSAFKNEDFIPIKYTCDGQDLSPELEWDLVTNAKSYAIIVEDPDAPGGTFIHWVIYNITTNRLPEGVPRLYKSQYGVQGVNDFGNIGYNGPCPPKTHPPHRYYFYVYAIDTILLEIKNINADKLKSLMEGHGIERGFVMGKYKRK
notes: The filling uses Sso0767, Sso1273 and SsCEI for the same protein; also called Sso1273; not shown: C-terminal His tag from expression vector pET-28
B2: Compound 3 or SsCEI 3 (peptide)
peptide: YAIDTILAEIKNINAD-NH2
notes: also called Peptide 3
B3: Compound 4 or SsCEI 4 (peptide)
peptide: TILAEIKNINAD-NH2
notes: also called Peptide 4

How the values were obtained:
[1] = biological target: T3, bovine alpha-chymotrypsin (bovine, UniProt P00766 1-13; P00766 16-146; P00766 149-245); assay: cell-based or functional assay
[2] = biological target: T4, porcine elastase (porcine, UniProt P00772 27-266); assay: cell-based or functional assay
[3] = biological target: T1, human acylamino-acid-releasing enzyme …; assay: cell-based or functional assay
[4] = biological target: T3, bovine alpha-chymotrypsin; assay: cell-based or functional assay; remark: listed apart in the source
[5] = biological target: T4, porcine elastase; assay: cell-based or functional assay; remark: listed apart in the source
[6] = biological target: T4, porcine elastase; assay: enzyme inhibition kinetics, double reciprocal plot
[7] = biological target: T3, bovine alpha-chymotrypsin; assay: enzyme inhibition kinetics, double reciprocal (Lineweaver-Burk) plot, competitive inhibition
Description: The reciprocals of the rate of the substrate hydrolysis for each inhibitor concentration were plotted against the reciprocals of the substrate concentrations. Ki was determined from the formula as per the competitive type of inhibition.

[8] = biological target: T2, porcine acylamino-acid-releasing enzyme …; assay: cell-based or functional assay
[9] = biological target: T1, human acylamino-acid-releasing enzyme …; assay: cell-based or functional assay; remark: listed apart in the source
[10] = biological target: T2, porcine acylamino-acid-releasing enzyme …; assay: cell-based or functional assay; remark: listed apart in the source
[11] = biological target: T2, porcine acylamino-acid-releasing enzyme …; assay: enzyme inhibition kinetics with N-acetyl-Ala-pNA as substrate
[12] = biological target: T2, porcine acylamino-acid-releasing enzyme …; assay: enzyme inhibition kinetics, Lineweaver-Burk plot, competitive inhibition

T4 sequence (P00772 27-266 limits assumed): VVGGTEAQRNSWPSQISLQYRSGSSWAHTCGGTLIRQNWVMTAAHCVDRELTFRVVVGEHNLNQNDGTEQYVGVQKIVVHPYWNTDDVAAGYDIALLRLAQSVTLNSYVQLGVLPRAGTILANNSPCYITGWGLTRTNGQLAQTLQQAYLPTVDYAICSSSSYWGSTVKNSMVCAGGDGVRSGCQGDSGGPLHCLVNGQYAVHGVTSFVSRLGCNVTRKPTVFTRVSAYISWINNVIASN

| Binder | IC50 value (50% inhibitory concentration) [1] [nM] | IC50 value [2] [nM] | IC50 value at 37° C. [3] [nM] | IC50 [4] [nM] | IC50 [5] [nM] | Ki [6] [nM] | Ki [7] [nM] | IC50 values [8] [nM] | IC50 [9] [nM] | IC50 [10] [nM] | Ki [11] [nM] | Ki [12] [nM] |
| --- | --- | --- | --- | --- | --- | --- | --- | --- | --- | --- | --- | --- |
| B1 | 100 | 150 | 20 | 25 | 40 | 100 | 80 |  |  |  |  |  |
| B2 |  |  |  |  |  |  |  | 20000 | 25000 | 25000 | 20000 |  |
| B3 |  |  |  |  |  |  |  |  | 35000 | 35000 |  | 4000 |
